# In the nanobody polyreactivity screen of Harvey et al. (2022):
# Assay: yeast display, Sf9 membrane polyspecificity reagent, FACS + sequencing; frameworks hold sequencing errors
# Procedure, shortened: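 Polyreactivity labels are assigned by the sorting gate from which each nanobody was recovered. The gates were low and high (top ~1%), set on anti-HA fluorescence for expression and streptavidin fluorescence for reagent binding. Before sorting, galactose-induced (36–48 hours) yeast display cells were stained for 1 hour at 4 °C with 10% biotinylated, detergent-solubilized Sf9 membrane reagent.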
row,Sequence,polyreactivity (PSR sort gate)
1,QVQLLESGGGLVQAGGSLRLSCAASGRTFYFYVMGWYRQAPGKERELVARISWSGGSTYYADSVKGRFTISRDNSKNTVYLQMNSLKPEDTAVYYCNTVDSIPIGSGLYYYWGQGTQVTVSS,low polyreactivity
2,QVQLLESGGGLVQAGGSLRLSCAASGRTSYIYSMGWYRKAPGKEREFVADITWSGGSTYYADSVKGRFTISRDNAKNTVYLQMNSLKPEDTAVYYCNADLLSWWGVEYYYWGQGTQVTVSS,high polyreactivity
3,QVQLLESGGGLVQAGGSLRLSCAASGSIFDYNAMGWYRQAPGNERELVADITISDDSTYYADSVKGRFTISRDNAKNTVNLQMNSRQPEDTAVYYCAADIKYYWYYYYWAYAYDYWGQGTQVTVSS,high polyreactivity
4,QVQLLESGGGLVQAGGSLRLSCAASGSIFGLYAMGWYRQAPGKERELVAALTWSSGNTYYADSVKGRFTISRDNAKNTVYLQMNSLKPEDTAVYYCSARVYRYGAMDYWGQGTQVTVSS,high polyreactivity
5,QVQLLESGGGLVQAGGSLRLSCAASGSIFLLNAMGWYRQAPGKERELVASISRGGVRTNYADSEKGRFTISRDNAKNTVYLQMISLKPEDTAVYYCAAGTRPFGYRRDYWGQGTQVTVSS,high polyreactivity
6,QVQLLESGGGLVQAGGSLRLSCAASGSIFTPNNMGWYRQAPGKESEFVAAITFSGGSTYYADSVKGRFTISRDNAKNTVYLQMNSLKPEDTSVYYCAAVYPTYDWYTPAYYYWGQGTQVTVSS,low polyreactivity
7,QVQLLESGGGLVQAGGSLRLSCAASGSIFTVYAMGWYRQAPGKERELVAAITGSGGRTYYADSVKGRFTISRDNAKNTVYLQRNSLKPEDTAVYYCAATTRPGYRYEGDYWGQGTQVTVSS,low polyreactivity
8,QVQLLESGGGLVQAGGSLRLSCAASGSIFVGYAMGWYRPAPGKERELVASITTPGGSTHYADSVKGRFTISRDNAKNTVYLQMNSLKPEDTAVYYCAADSLSNGVLQYLPGYDYWGQGTQVTVSS,low polyreactivity
9,QVQLLESGGGLVQAGGSLRLSCAASGSIFVKYDMGWYRQAPGKDRELVAAIRSGASTTYADSVKGRFTISRDNAKITVYLQMNSLKPEDTAVYYCAADQRGWGYTYGKGGDYWGQGTQVTVSS,low polyreactivity
10,QVQLLESGGGLVQAGGSLRLSCAASGSIIPYYAMGWYRQAPGKESELVAAITSGGGSTYYADSVKGRFTISRDNAMNSVYLQMNSLKPEDTAVYYCAAVLTSYYGGDYWGQGTQVTVSS,low polyreactivity
11,QVQLLESGGGLVQAGGSLRLSCAASGSILFTNAMGWYRQAPGKERELVAAISSGGSTYYADSVKGRFTFSRDNAKNTVYLQMNSLKPEDTAVYYSAADQLNVGREYVEYDYWGQGTQVTVSS,low polyreactivity
12,QVQLLESGGGLVQAGGSLRLSCAASGSILIKYAMGWYRQAPGKERELVATITSGGSTYYADSVKGRFTISRDNAKNTVYLQMNSLKPEDTAVYYCATGQYYYYGIVAFFELDYWGQGTQVTVSS,low polyreactivity
13,QVQLLESGGGLVQAGGSLRLSCAASGSTFCANAMGWYRQAPGKVWELVARITYSGGSTYYADSVKGRFTISRDNAKNTVYLQMNSLKPDDTAVYFCAADLPGKFDYWGQGTQVTVSS,low polyreactivity
14,QVQLLESGGGLVQAGGSLRLSCAASGSTFKKNAMGWYRQAPGKETELVAAISGIGTRTSYADSVKGRFTISRDNAKNTVYLQMNSLKPEDTAVYYCAARYYGFPSTLKYDYWGQGTQVTVSS,high polyreactivity
15,QVQLLESGGGLVQAGGSLRLSCAASGSTFLYNAMGWYRQAPGKERELVAGIRRSGGSTYYADSVKGRFTISRDNAMNTVYLQMNSLKPEDTAVYYCNTDRTLSYQYGGYDYWGQGTQVTVSS,low polyreactivity
16,QVQLLESGGGLVQAGGSLRLSCAASGSTFWWNTMGWYRQAPGKERELVADIRPSGGGTYYADSVKGRFTISRDNAKNTVYLPMHSLKPEATAVYYCNADPKWEMGSWGQGTQVTVSS,low polyreactivity
17,QVQLLESGGGLVQAGGSLRLSCASSGYINSYYTMGWYRHATGKERVLVASIRWAGGRTYYADSVKGRFTFSRDNAKITVYLQMNSLKPEDTAVYYCNVKSSRFLDVGRMEYWGQGTQVTVSS,high polyreactivity
18,QVQLLESGGGLVQAGGSLRLSSASSSFIFYSNDMGSYRQAPGKERELVAAISRRCGSTYYADSVKGRFTISRDNAKNTVFLQMNSLKPEDTAVYYCAARVGSGFDSWGQGTQVTVSS,high polyreactivity
19,QVQLLESGGGLVQAGGSLRLTCAASGFTFDLNAMGWYRQAPGKERELVAAISYSGDDTYYADSVKGRFTISRDNAKNTVYLQMNSLKPEDTAVYYCAADATWTYYQLYDYWGQGNQVTVSS,low polyreactivity
20,QVQLLESGGGLVQAGGSLRLTCAASGITFQYYAMGWYRQAPGKERELVAAITSSGVSTYYADSVKGRFTISRDNAKNTVYLQMNSLKPEDTAVYYCNTVVRGWSSSAYDYWGQGTQVTVSS,low polyreactivity
21,QVQLLESGGGLVQAGGSLRLTCAASGRTFQYNAMGWYRQAPGKERELVGAISSTGGSTYYADSVKGRFTISRDNAKNTVYLQMNSLKPEDTAVYYCARQGRYTRGDYWGQGTQVTVSS,high polyreactivity

row,Sequence,polyreactivity (PSR sort gate)
1,QVQLLESGGGLVQAGGTLRLSCAASGYTFAWYAMVWSRQAPGKERELVAAINNGGSTSYADSVKGRFTISRDNAKNTVYLQMNSLKREDTAVYYCAARPGAHPDRLDYWGQGTQVTVSS,low polyreactivity
2,QVQLLESGGGLVQAGRSLRLSCAPSGIIFRVYAMGWYRQAPGKERELVAAISSSGGNTYYADSVKGRFTISRDNAKNTVYLQLNSLKPEDTAVYYCAAPYGQLFTQGTWYEYWGQGTQVTVSS,low polyreactivity
3,QVQLLESGGGLVQARGSLRLSCAASGSIFTYYAMGWYRQAPGIEREFVAAISRRGGSTYYADSVKGRFTISRDNAKNTVYLQMNSLKAVDTAVYYCAKDPSFTRGYKEGGGYDYWGQGTQVTVSS,high polyreactivity
4,QVQLLESGGGLVQAVGSLRLSCAASGIIFWVNAMGWYRQAPGKERELFAAIRSDGSTKYADSVKGRFTISRDNAKNTVYLLMNSLKPEDTAHYYCAKRDYSYTWLRDYYYWGQGTQVTVSS,low polyreactivity
5,QVQLLESGGVLDQAGGSLRLTCAASGSIFFTNAMGWYRQAPGKERELVAAIRQSGGSTFYADSVKGRFTISRDNAKNTVYLQLNSLKPEDTAVFYCNADGRHKWQYSSYDYWGQGTQLTVSS,low polyreactivity
6,QVQLQDSGGGLVLAGGSLRLSCSASGNISVYGSMGWYRQAPGKEREFVATIDPGTNTNYADSVKDRFTISRDNAKNTVYLQMNSLKPEDTAVYYCAVEAGSDWPYRYWGQGTQVTVSS,low polyreactivity
7,QVQLQDSGGGLVQAGGSLRLSCAASGTISYRYRMGWYRQAPRKELELVAGIRFGSITYYADSVKGRFTISRDNAKNTVYLQMNSLKPEDIAVYYCAVYQKSYRFFPYWGQGTQVTVSS,high polyreactivity
8,QVQLQDSGGGLVQAGGSLRQSYAASGYIFPSLAMGWYRQAPGKEREFVAAIGRGSTNNYADSVKGRFTISRDNAKNTAYQQMNSLKPEDTAVYYCAAAASPLTRHLYWGQGTQVTVSS,low polyreactivity
9,QVQLQDSGGGLVQAVGSQRMSCAASGYIFYFQYMGWYRQAPGKEREFVAAISDGANTNYADSVKGRFTISRDNAKNTEYLQMYCLKPEDTAVYYCAVYADENYYYIYWGQGTQVTVSS,low polyreactivity
10,QVQLQECGGGLVQAGGSLRLSCAASGNIFDADIMGWYRQAPGKERELVASVTDGGSTNYADSVKGRFTISRDNAKITVYLQLNSLKPEDTAVYYCAAIVYPDILTDFDYDYDYFYWGQGTQVTVGS,low polyreactivity
11,QVQLQEGGGGLVQAGGSLRLSCAASGYISYGDVMGWYRQAPGEERELVASIGLDATTNYADSVKGRFTISRDNAKITVYLQMNSLKPEDTAVYYCAADVGSGVLCGYWGQGTQMTVSS,high polyreactivity
12,QVQLQEIGGCLVQAGDSHRLSCAASGNIFPFTDMGWNRQAQGKERELVAAINAGSTTYYADSVKGRFTISRDNAKITVYLQLISLKPEDTAVYYCAVYYLGSGTFCYWGQGPQVTVSS,high polyreactivity
13,QVQLQEIGGGLVQAGGSLRLSCAASGYISLAKTIGLSRQAPGKEREFVASIALGSSTYYTDSVKGSFTISRDNAKTTVYLQMNRLKPEDTAVYYCAARVGASYAHDYGGQGTQVTVSS,low polyreactivity
14,QVQLQENGGGLVQAGGSLRLSCAASGTILYSLGMGWYRQAPGKRREFVASITWGTTTNYAESVKGRFTISRDNAKNSVYPQMNSLKPEDTAVYYCAAPPFGDSSYHYWGQGTQVTVSS,low polyreactivity
15,QVQLQERAAWCRRAGSLRLSCAASGNISDYYFMGWYRQAPGKERELVAAIAPGSNTYYADSVKGRFTISRDNAKNTVYLQMNSLKPEDTAVCFCGANSTQYTWFDYWGQGTQVPVSS,low polyreactivity
16,QVQLQERGGGLMQAGGSQRLSCAASGSISYYSDMGWYRQAPGTEREFVAGIGYGTTTNYADSVKGRFTTSRDNAKNTVDLQMISMKPEDTAVYYCAAYQGNGYEFYYWGQGTQVTVRS,low polyreactivity
17,QVQLQERGGGLVQAGGSLRLSCAASCTIFRFRYMGWHRQAPGKERELVAGINGGTTTYYADSVIGRFTISRDNAKNTLYLQMNSLKPDDTAVYNCAAVASRLTYYDYWGQGTQVTVSS,low polyreactivity
18,QVQLQERGGGLVQAGGSLRLSCAASGNIFEADIMGWYHQAQGKDRELVASITDGGSTNYADSVKGRFTINRDNAKNKVSRQMNSLKPEDTALYYCAAYGNARLKEHYYWGQGTQVTVSS,high polyreactivity
19,QVQLQERGGVLVQAGGSLRLSCAASGTISYAPHMGWYRQATGKERELVAGITIGGTTYYADSVKGRFTISRDNAIHTVYLHMNSLCRGDTAVYFFAAHSEQYTPFYYWGQGTQLTVSS,low polyreactivity
20,QVQLQESAGGLVQAGGSLRLRCSASGYISCDASMGWYRQAAGKERELAASITKGSSTNYADSVKGRFTIRDNAKNTVYLQMNSLKPEDTAVCYCAVTYPYWGDYTYWGQGTQVTVSS,low polyreactivity
